Where “and” joins values, the source holds several entries; their conditions need not be identical. Equal values may be shown once.
Experiments:
[1] = molecular target: the molecule itself; assay: nonreducing capillary electrophoresis immunoassay (Simple Jess) + other: nonreducing SDS-PAGE with immunoblot; root lysates of p35S:APT1-GFP/apt1 plants after 4 mM H2O2 for 15 min to 6 h (also 1 dpi with F. oxysporum); DTT-free buffers, samples not heated, anti-GFP
[2] = molecular target: the molecule itself; assay: nonreducing SDS-PAGE with immunoblot; 6 × His-APT1 proteins after Ni purification from E. coli, no reducing agent; Tris-Tricine SDS-PAGE system
[3] = molecular target: the molecule itself; assay: not stated; in vivo in M. truncatula under drought stress (Supplementary Fig. 2a)

B1: APT1-GFP fusion protein (p35S:APT1-GFP) in M. truncatula apt1 roots (enzyme)
chain: not shown
notes: acyl-protein thioesterase 1 (APT1) of Medicago truncatula, cDNA from ecotype A17; Detected with anti-GFP; source: transgenic M. truncatula apt1 mutant roots (p35S:APT1-GFP), in lysate
[1]
  stoichiometry N: 4

B2: 6 × His-APT1 fusion protein (acyl-protein thioesterase 1, Medicago truncatula) (enzyme)
chain: not shown
notes: acyl-protein thioesterase 1 (APT1, MtAPT1) of Medicago truncatula; cDNA amplified from ecotype A17; cysteines at C20, C22 and C37; The vector pET-30a(+) may add further vector-encoded residues (surmised); also called MtAPT1; pET-30a(+)-His-APT1
[2]
  stoichiometry N: 2 and 4

B3: APT1 in M. truncatula under drought stress (enzyme)
chain: not shown
notes: acyl-protein thioesterase 1 (APT1) of Medicago truncatula; May be the same APT1-GFP as m9 (surmised); source: in vivo in M. truncatula
[3]
  stoichiometry N: 4

— paper PMC10192129, “The thioesterase APT1 is a bidirectional-adjustment redox sensor” (Nature Communications, 2023)
